Reference: patent US20230287120A1 (ALLOGENE THERAPEUTICS, published 2023)

T1: Flag tagged recombinant DLL3 (Adipogen) (Homo sapiens (Human), UniProt Q9NYJ7 27-492)
T1 construct: Bought reagent; also called Flag-DLL3
T1 sequence: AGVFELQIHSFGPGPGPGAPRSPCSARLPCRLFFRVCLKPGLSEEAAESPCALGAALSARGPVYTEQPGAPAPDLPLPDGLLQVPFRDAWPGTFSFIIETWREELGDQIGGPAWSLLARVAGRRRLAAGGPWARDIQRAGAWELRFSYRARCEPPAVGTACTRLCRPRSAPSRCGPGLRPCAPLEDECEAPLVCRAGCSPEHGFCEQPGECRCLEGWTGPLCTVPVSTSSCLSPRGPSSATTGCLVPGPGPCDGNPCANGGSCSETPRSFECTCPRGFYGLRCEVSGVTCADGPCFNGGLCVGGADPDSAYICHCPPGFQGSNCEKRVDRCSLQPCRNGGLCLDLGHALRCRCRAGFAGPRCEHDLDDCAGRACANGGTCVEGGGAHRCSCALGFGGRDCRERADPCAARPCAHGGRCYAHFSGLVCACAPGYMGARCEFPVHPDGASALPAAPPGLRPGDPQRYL

T2: human DLL3 extracellular domain (ECD) with C-terminal 8xHis tag and Avi tag (human, UniProt Q9NYJ7 27-492)
T2 construct: extracellular domain; Expressed in Expi293, purified by IMAC and SEC; also called huDLL3; not shown: Avi tag
T2 sequence: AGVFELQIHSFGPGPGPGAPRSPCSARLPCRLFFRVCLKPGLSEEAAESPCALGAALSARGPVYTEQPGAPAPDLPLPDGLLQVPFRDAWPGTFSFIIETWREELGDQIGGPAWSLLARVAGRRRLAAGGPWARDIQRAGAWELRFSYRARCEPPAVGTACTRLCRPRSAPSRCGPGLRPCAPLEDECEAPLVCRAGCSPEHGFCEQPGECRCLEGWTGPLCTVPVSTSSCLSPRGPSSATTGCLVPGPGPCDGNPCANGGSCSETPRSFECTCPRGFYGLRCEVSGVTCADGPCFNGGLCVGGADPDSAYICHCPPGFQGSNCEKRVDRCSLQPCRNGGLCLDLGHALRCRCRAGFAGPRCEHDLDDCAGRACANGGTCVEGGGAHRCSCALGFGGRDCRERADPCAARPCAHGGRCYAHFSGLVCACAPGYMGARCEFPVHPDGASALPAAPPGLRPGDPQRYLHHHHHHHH


Legend:
[1] = target: T1, Flag tagged recombinant DLL3 (Adipogen); test: flow cytometry, percent of T cells that recognise recombinant DLL3, Donor 503
Method: (§1) To determine the percentage of T cells that were successfully transduced with DLL3 CAR, T cells were first incubated with 1 ug/ml Flag tagged recombinant DLL3 (Adipogen) in PBS+1% BSA for 20 minutes at 4 C.

[2] = target: T1, Flag tagged recombinant DLL3 (Adipogen); test: flow cytometry, percent of T cells that recognise recombinant DLL3, Donor 772
Method: as §1

[3] = target: T1, Flag tagged recombinant DLL3 (Adipogen); test: flow cytometry, primary T cells with the CAR, 1 ug/ml Flag tagged recombinant DLL3, PE anti-Flag
Method: as §1

[4] = target: T2, human DLL3 extracellular domain (ECD) …; test: SPR (Biacore), 37 C; IgG captured on chip, human DLL3 ECD in solution; 1:1 Langmuir fit
Method: The antibody binding kinetics were determined by surface plasmon resonance (Biacore™ surface plasmon resonance (SPR) system, GE Healthcare Bio-Sciences, Pittsburgh Pa.). The antibodies diluted in HBS-T+ running buffer (0.01 M HEPES pH 7.4, 0.15 M NaCl, 0.05% v/v Tween20, 1 mg/mL BSA) were captured on a CM4 chip immobilized with an antibody specific for the anti-DLL3 antibody constant domains. Purified DLL3 was serially diluted into HBS-T+, injected for 2 min at 30 uL/min and a dissociation time of 10 min then the surface regenerated with either 10 mM Glycine-HCl pH 1.7 or phosphoric acid between injections. […] Equilibrium dissociation constant (Kd) values are calculated as koff/kₒₙ.

Transduction efficiency [1] [%]	Transduction efficiency [2] [%]	Rec-DLL3 gate, percent of live CD3+ cells [3] [%]	Kd [4] [µM]	Binder
41.4	35.6	56.3		9H12-K (other, also called anti-DLL3 CAR with 9H12-K scFv, on primary T cells) CAR: QVQLVQSGAEVKKPGASVKVSCKASGYTFTGYSIHWVRQAPGQGLEWMGWINPNSGGTFYAQKFQGRVTMTRDTSISTVYMELSRLRSDDTAVYYCARDGWGDYYYYGLDVWGQGTTVTVSLGGGGSGGGGSGGGGSGGGGSDIQMTQSPSSVSASVGDRVTITCRASQDISSWLAWYQQKPGKAPKLLIYTASSLQGGVPSRFSGSGSGTDFTLTISSLQPEDLATYSCQQANVFPYTFGQGTKLEIKTTTPAPRPPTPAPTIASQPLSLRPEACRPAAGGAVHTRGLDFACDIYIWAPLAGTCGVLLLSLVITKRGRKKLLYIFKQPFMRPVQTTQEEDGCSCRFPEEEEGGCELRVKFSRSADAPAYQQGQNQLYNELNLGRREEYDVLDKRRGRDPEMGGKPRRKNPQEGLYNELQKDKMAEAYSEIGMKGERRRGKGHDGLYQGLSTATKDTYDALHMQALPPR
42.1	20	57.3		11A3 (other, also called anti-DLL3 CAR with 11A3 scFv, on primary T cells) CAR: QVQLQESGPGLVKPSETLSLTCTVSSDSISNYYWSWIRQPPGKGLEWISYIYYSGITNYNPSLKSRVTISVDTSKNQFSLKLSSVTAADTAVYYCARITVTGFYFDYWGQGTLVTVSSGGGGSGGGGSGGGGSGGGGSEIVLTQSPGTLSLSPGERATLSCRASQSISRSYLAWYQQKPGQAPRHLIYGASSRATGIPDRFSGSGSGTDFILTISRLEPEDFAVYYCQQYDTSPLTFGGGTKVEIKTTTPAPRPPTPAPTIASQPLSLRPEACRPAAGGAVHTRGLDFACDIYIWAPLAGTCGVLLLSLVITKRGRKKLLYIFKQPFMRPVQTTQEEDGCSCRFPEEEEGGCELRVKFSRSADAPAYQQGQNQLYNELNLGRREEYDVLDKRRGRDPEMGGKPRRKNPQEGLYNELQKDKMAEAYSEIGMKGERRRGKGHDGLYQGLSTATKDTYDALHMQALPPR
			0.0265	anti-DLL3 antibody 6F8 (IgG) (antibody, V domains shown) VH: QVQLVQSGAEVKKPGSSVKVSCKASGGTFTNYCISWVRQAPGQGLEWMGGIIPIFGTTNYAQTFQGRVTITADKSTSTAYMELSSLRSEDTAVYYCARDNGDRYYYDMDVWGQGTTVTVSS VL: QSVLTQPPSVSAAPGQKVTISCSGSSSNIGNNYVSWYQQLPGTAPKLLIYDNNKRPSGIPDRFSGSKSGTSATLGITGLQTGDEADYYCGTWDSSLSAVVFGGGTKLTVL
			0.00549	anti-DLL3 antibody 17A2 (IgG) (antibody, V domains shown, Full-length monoclonal antibody (IgG)) VH: QVQLQESGPGLVKPSGTLSLTCVVFGDSISSSNWWSWVRQPPGKGLEWIGEVFHSGSTNYNPSLKSRVTISVDKSKNQFSLKLSSVTAADTAVYYCARAAVAGALDYWGQGTLVTVSS VL: not shown
39.3	27.2	77.9		4H8 (other, also called anti-DLL3 CAR with 4H8 scFv, on primary T cells) CAR: QVQLQQSGPGLVKPSQTLSLTCAISGDSVSSNSATWNWIRQSPSRGLEWLGRTYYRSKWYDDYAVSVKSRITINPDTSKNHLSLHLNSVTPEDTAVYYCAGGGLVGAPDGFDVWGQGTMVTVSSGGGGSGGGGSGGGGSGGGGSQSVLTQPPSASGTPGQRVTISCSGSSSNIGSDPVNWYQQLPGTAPKLLIYSNNQRPSGVPDRFSGSKSGTSASLAISGLQSEDEADYYCSAWDDSLNGYVFGTGTKVTVLTTTPAPRPPTPAPTIASQPLSLRPEACRPAAGGAVHTRGLDFACDIYIWAPLAGTCGVLLLSLVITKRGRKKLLYIFKQPFMRPVQTTQEEDGCSCRFPEEEEGGCELRVKFSRSADAPAYQQGQNQLYNELNLGRREEYDVLDKRRGRDPEMGGKPRRKNPQEGLYNELQKDKMAEAYSEIGMKGERRRGKGHDGLYQGLSTATKDTYDALHMQALPPR
			0.0048	anti-DLL3 antibody 11A3 (IgG) (antibody, V domains shown, Full-length monoclonal antibody (IgG)) VH: QVQLQESGPGLVKPSETLSLTCTVSSDSISNYYWSWIRQPPGKGLEWISYIYYSGITNYNPSLKSRVTISVDTSKNQFSLKLSSVTAADTAVYYCARITVTGFYFDYWGQGTLVTVSS VL: EIVLTQSPGTLSLSPGERATLSCRASQSISRSYLAWYQQKPGQAPRHLIYGASSRATGIPDRFSGSGSGTDFILTISRLEPEDFAVYYCQQYDTSPLTFGGGTKVEIK
			0.00547	anti-DLL3 antibody 2D3 (IgG) (antibody, V domains shown, Full-length monoclonal antibody (IgG)) VH: QVQLQESGPGLVKPSETLSLTCTVSDNSISNYYWSWIRQPPGKGLEWIAYIYYSGTTNYNPSLKSRVTISLDTSKNQFSLKLSSVTAADTAVYYCARLFNWGFAFDIWGQGTMVTVSS VL: not shown
			0.0211	anti-DLL3 antibody 9D3 (IgG) (antibody, V domains shown, Full-length monoclonal antibody (IgG)) VH: QVQLQESGPGLVKPSETLSLTCTVSDDSISNYYWSWIRQPPGKGLEWIGYIFYSGTTNHNPSLKSRLTISLDKAKNQFSLRLSSVTAADTAVYYCARVFNWGFAFDIWGQGTMVTVSS VL: EIVLTQSPGTLSLSPGERATLSCRASQRISRTYLAWYQQKPGQAPRLLIYGASSRATGIPDRFTGSGSGTDFTLTISRLEPEDFAVYYCQQYGTSPLTFGGGTKVEIN
			0.0234	anti-DLL3 antibody 2A6.C5 (IgG) (antibody, V domains shown, Full-length monoclonal antibody (IgG)) VH: QVQLQESGPGLVKPSETLSLTCTVSNVSISSYYWSWIRQPPGKGLEWIGYIYYSGTTNYNPSLKSRVTMSVDTSKNQFSLKLSSVTAADTAVYFCARLSNWGFAFDIWGQGTMVTFSS VL: EIVLTQSPGTLSLSPGERATLSCRASQTISSSYLAWYQQKPGQAPRLLIYGASSRATGIPDRFSGSGSGTEFTLTISRLEPEDFAVYYCQQYGWSPITFGQGTRLEIK
			0.00586	anti-DLL3 antibody 8E11 (IgG) (antibody, V domains shown, Full-length monoclonal antibody (IgG)) VH: QVQLQESGPGLVKPSETLSLTCTVSGDSISNYYWTWIRQPPGKGLEWIGYIYYSGTTNSNPSLKSRVTVSLDTSKSQFSLNLSSVTAADTAVYYCARVFNRGFAFDIWGQGTMVTVSS VL: EIVLTQSPGTLSLSPGERATLSCRASQRISNTYLAWYQQKPGQAPRLLIYGASSRATGIPDRFSGSGSGTDFTLTISRLEPEDFAAYYCQQYDTSPLTFGGGTKVEIK
			0.0127	anti-DLL3 antibody 7F9 (IgG) (antibody, V domains shown, Full-length monoclonal antibody (IgG)) VH: EVQLVESGGGLVQPGGSLRLSCAASGFTFSSHDMHWVRQATGKGLEWVSAIGIAGDTYYSGSVKGRFTISRENAKNSLYLQMNSLRAGDTAVYYCARANWGEGAFDIWGQGTMVTVSS VL: DIQMTQSPSSLSASVGDRVTITCRASQGISDYLAWYQQKPGKIPKLLIYAASTLQSGVPSRFSGSGSGTDFTLTISSLQPEDVATYYCQKYNSVPLTFGGGTKVEIK
53.7	33.7	51.8		10G1-K (other, also called anti-DLL3 CAR with 10G1-K scFv, on primary T cells) CAR: EVQLLESGGGLVQPGGSLRLSCAASGFTFSSYAMNWVRQAPGKGLEWVSTISGSGGSTYYADSVKGRFTISRDNSKNTLYLQMNSLRAEDTAVFYCAIDPEYYDILTGGDYWGQGTLVTVSSGGGGSGGGGSGGGGGSGGGGSDIQMTQSPSAMSASVGDRVTITCRASQGISNYLAWFQQKPGKVPKRLIYAASSLQSGVPSRFSGSGSGTEFTLTISSLQPEDFATYFCLQHDSFPLTFGGGTKVEIKTTTPAPRPPTPAPTIASQPLSLRPEACRPAAGGAVHTRGLDFACDIYIWAPLAGTCGVLLLSLVITKRGRKKLLYIFKQPFMRPVQTTQEEDGCSCRFPEEEEGGCELRVKFSRSADAPAYQQGQNQLYNELNLGRREEYDVLDKRRGRDPEMGGKPRRKNPQEGLYNELQKDKMAEAYSEIGMKGERRRGKGHDGLYQGLSTATKDTYDALHMQALPPR
			0.0148	anti-DLL3 antibody 3F2 (IgG) (antibody, V domains shown, Full-length monoclonal antibody (IgG)) VH: QVQLQESGPGLVKPSGTLSLTCAVSGGSISSNNWWSWVRQPPGKGLEWIGDIHHSGSTNYKPSLKSRVTISVDKSKNQFSLNLISVTAADTAVYYCAREAGGYFDYWGQGILVTVSS VL: DIQMTQSPSTLSASVGDRVTITCRASQSISSWLAWYQQKPGKAPKLLISKASSLESGVPSRFSGSGSGPEFTLTISSLQPADFATYYCQQYNSYSTFGQGTKLEIK
			0.0185	anti-DLL3 antibody 4H8 (IgG) (antibody, V domains shown, Full-length monoclonal antibody (IgG)) VH: QVQLQQSGPGLVKPSQTLSLTCAISGDSVSSNSATWNWIRQSPSRGLEWLGRTYYRSKWYDDYAVSVKSRITINPDTSKNHLSLHLNSVTPEDTAVYYCAGGGLVGAPDGFDVWGQGTMVTVSS VL: not shown
			0.0381	anti-DLL3 antibody 2G1 (IgG) (antibody, V domains shown, Full-length monoclonal antibody (IgG)) VH: QLQLQESGPGLVKPSETLSLTCTVSGGSISSSSYYWGWIRQPPGKGLEWIGSIYYSGNIYHNPSLKSRVSISVDTSKNQFSLRLSSVTAADTAVYYCAREIIVGATHFDYWGQGTLVTVSS VL: AIQMTQSPSSLSASVGDRVTITCRASQGIRNDLGWYQQKPGKAPELLIYAASSLQSGVPSRFSGSGSGTDFTLTISSLQPEDFATYYCLQDYNYPLTFGPGTKVDIK
